Experimental data published in publication PMC10155992.

Assays:
[1] = target: VP3, inner capsid protein of mud crab reovirus (MCRV) (mud crab reovirus (MCRV)); test: cryo-EM structure; single-particle cryo-EM of purified MCRV virions, quiescent (qMCRV) and transcribing (tMCRV), in PBS; icosahedral, C1 and D5 reconstructions; atomic models built de novo
[2] = target: VP12, major outer capsid protein of mud crab reovirus (MCRV) (mud crab reovirus (MCRV)); test: as above

Row | Substance | stoichiometry N [1] | stoichiometry N [2]
1 | VP3, inner capsid protein of mud crab reovirus (MCRV) (natural protein) | 2 | 
2 | VP12, major outer capsid protein of mud crab reovirus (MCRV) (natural protein) |  | 3
